Data taken from patent publication US7867500B2, “Cofactor that modulates steroid receptor activities” (The United States of America as represented by the …, priority 2004, dated 2011).

T1: SRC-1 (1139C) (Homo sapiens, UniProt Q15788)
T1 construct: expressed in transfected cells; host or cells: CV-1
T1 sequence (Q15788 1139-1441 limits assumed): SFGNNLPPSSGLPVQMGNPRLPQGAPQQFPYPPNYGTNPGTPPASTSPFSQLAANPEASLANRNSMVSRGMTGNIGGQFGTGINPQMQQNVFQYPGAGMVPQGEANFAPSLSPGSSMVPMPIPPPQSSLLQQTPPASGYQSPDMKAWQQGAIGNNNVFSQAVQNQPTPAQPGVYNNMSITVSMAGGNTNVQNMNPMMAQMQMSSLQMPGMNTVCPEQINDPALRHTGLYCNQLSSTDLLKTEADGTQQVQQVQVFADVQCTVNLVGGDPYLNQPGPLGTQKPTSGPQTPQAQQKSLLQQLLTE
T1 sequence (Q6EMB2 627-838 partner limits assumed): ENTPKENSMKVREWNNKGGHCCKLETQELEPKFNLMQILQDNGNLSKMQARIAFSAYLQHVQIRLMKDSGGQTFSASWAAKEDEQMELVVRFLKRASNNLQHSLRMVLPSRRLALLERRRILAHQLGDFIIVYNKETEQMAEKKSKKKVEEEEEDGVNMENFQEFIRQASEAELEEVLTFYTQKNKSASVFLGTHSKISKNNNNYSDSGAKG

B1: 6-6CL1: STAMP fragment amino acids 623-834, coactivator interaction domain (CID) (protein)
chain: T1 sequence (Q6EMB2 627-838 partner limits assumed)
B2: STAMP: SRC-1 and TIF2 Associated Modulatory Protein, 1277 amino acid human polypeptide, expressed from transfected plasmid (protein)
chain: MARDLEETASSSEDEEVISQEDHPCIMWTGGCRRIPVLVFHADAILTKDNNIRVIGERYHLSYKIVRTDSRLVRSILTAHGFHEVHPSSTDYNLMWTGSHLKPFLLRTLSEAQKVNHFPRSYELTRKDRLYKNIIRMQHTHGFKVFHILPQTFLLPAEYAEFCNSYSKDRGPWIVKPVASSRGRGVYLINNPNQISLEENILVSRYINNPLLIDDFKFDVRLYVLVTSYDPLVIYLYEEGLARFATVRYDQGAKNIRNQFMHLTNYSVNKKSGDYVSCDDPEVEDYGNKWSMSAMLRYLKQEGRDTTALMAHVEDLIIKTIISAELAIATACKTFVPHRSSCFELYGFDVLIDSTLKPWLLEVNLSPSLACDAPLDLKIKASMISDMFTVVGFVCQDPAQRASTRPIYPTFESSRRNPFQKPQRCRPLSASDAEMKNLVGSAREKGPGKLGGSVLGLSMEEIKVLRRVKEENDRRGGFIRIFPTSETWEIYGSYLEHKTSMNYMLATRLFQDRMTADGAPELKIESLNSKAKLHAALYERKLLSLEVRKRRRRSSRLRAMRPKYPVITQPAEMNVKTETESEEEEEVALDNEDEEQEASQEESAGFLRENQAKYTPSLTALVENTPKENSMKVREWNNKGGHCCKLETQELEPKFNLMQILQDNGNLSKMQARIAFSAYLQHVQIRLMKDSGGQTFSASWAAKEDEQMELVVRFLKRASNNLQHSLRMVLPSRRLALLERRRILAHQLGDFIIVYNKETEQMAEKKSKKKVEEEEEDGVNMENFQEFIRQASEAELEEVLTFYTQKNKSASVFLGTHSKISKNNNNYSDSGAKGDHPETIMEEVKIKPPKQQQTTEIHSDKLSRFTTSAEKEAKLVYSNSSSGPTATLQKIPNTHLSSVTTSDLSPGPCHHSSLSQIPSAIPSMPHQPTILLNTVSASASPCLHPGAQNIPSPTGLPRCRSGSHTIGPFSSFQSAAHIYSQKLSRPSSAKAGSCYLNKHHSGIAKTQKEGEDASLYSKRYNQSMVTAELQRLAEKQAARQYSPSSHINLLTQQVTNLNLATGIINRSSASAPPTLRPIISPSGPTWSTQSDPQAPENHSSSPGSRSLQTGGFAWEGEVENNVYSQATGVVPQHKYHPTAGSYQLQFALQQLEQQKLQSRQLLDQSRARHQAIFGSQTLPNSNLWTMNNGAGCRISSATASGQKPTTLPQKVVPPPSSCASLVPKPPPNHEQVLRRATSQKASKGSSAEGQLNGLQSSLNPAASVPITSSTDPAHTKI

Columns and labels:
Type in all cases: cell-based
SRC-1 (1139C) = biological target: T1, SRC-1 (1139C); experiment: Mammalian two-hybrid assay in CV-1 cells with SRC-1 C-terminal fragment
Source text: FIG. 2A-2C illustrate the isolation and characterization of the partial clone of the protein that binds to TIF2.4. […] Five clones were obtained but only two (clones I and V) contained a protein that was needed for colony growth in the presence of the pSos/TIF2.4 fusion protein. After initial screening, only clone I (also named 6-6CL1) was selected for further investigation. FIG. 2B and FIG. 2C illustrate the selectivity of 6-6CL1 interactions with TIF2.4 in mammalian two-hybrid assays. Triplicate samples of CV-1 cells in 24-well plates were transiently transfected with the indicated GAL-DBD and VP16-AD plasmids along with the GAL4-regulated reporter, pFRLuc. The relative luciferase activity, normalized for the activity of the internal Renilla control, was determined and plotted as the average±S.D. The much lower activity of GAL/TIF2.4m123 was previously shown not to be due to unequal levels of protein expression (He et al., 2002). Similar results were obtained in three additional experiments. […] Triplicate samples of CV-1 cells in 24-well plates were analyzed as in (B&C) after being transiently transfected with GAL±6-6CL1 constructs and pFRLuc reporter along with VP16 chimeras of SRC-1 (FIG. 2D) or TIF2 (FIG. 2E) segments. Similar results for SRC-1 were obtained in two additional experiments (ND=not determined). […]

p300 = biological target: T2, p300 (Homo sapiens, UniProt Q09472); experiment: Mammalian two-hybrid assay with p300; conditions: data not shown
T2 construct: expressed in transfected cells; host or cells: CV-1 (the same two-hybrid assay)
T2 sequence (Q09472 whole entry, species assumed): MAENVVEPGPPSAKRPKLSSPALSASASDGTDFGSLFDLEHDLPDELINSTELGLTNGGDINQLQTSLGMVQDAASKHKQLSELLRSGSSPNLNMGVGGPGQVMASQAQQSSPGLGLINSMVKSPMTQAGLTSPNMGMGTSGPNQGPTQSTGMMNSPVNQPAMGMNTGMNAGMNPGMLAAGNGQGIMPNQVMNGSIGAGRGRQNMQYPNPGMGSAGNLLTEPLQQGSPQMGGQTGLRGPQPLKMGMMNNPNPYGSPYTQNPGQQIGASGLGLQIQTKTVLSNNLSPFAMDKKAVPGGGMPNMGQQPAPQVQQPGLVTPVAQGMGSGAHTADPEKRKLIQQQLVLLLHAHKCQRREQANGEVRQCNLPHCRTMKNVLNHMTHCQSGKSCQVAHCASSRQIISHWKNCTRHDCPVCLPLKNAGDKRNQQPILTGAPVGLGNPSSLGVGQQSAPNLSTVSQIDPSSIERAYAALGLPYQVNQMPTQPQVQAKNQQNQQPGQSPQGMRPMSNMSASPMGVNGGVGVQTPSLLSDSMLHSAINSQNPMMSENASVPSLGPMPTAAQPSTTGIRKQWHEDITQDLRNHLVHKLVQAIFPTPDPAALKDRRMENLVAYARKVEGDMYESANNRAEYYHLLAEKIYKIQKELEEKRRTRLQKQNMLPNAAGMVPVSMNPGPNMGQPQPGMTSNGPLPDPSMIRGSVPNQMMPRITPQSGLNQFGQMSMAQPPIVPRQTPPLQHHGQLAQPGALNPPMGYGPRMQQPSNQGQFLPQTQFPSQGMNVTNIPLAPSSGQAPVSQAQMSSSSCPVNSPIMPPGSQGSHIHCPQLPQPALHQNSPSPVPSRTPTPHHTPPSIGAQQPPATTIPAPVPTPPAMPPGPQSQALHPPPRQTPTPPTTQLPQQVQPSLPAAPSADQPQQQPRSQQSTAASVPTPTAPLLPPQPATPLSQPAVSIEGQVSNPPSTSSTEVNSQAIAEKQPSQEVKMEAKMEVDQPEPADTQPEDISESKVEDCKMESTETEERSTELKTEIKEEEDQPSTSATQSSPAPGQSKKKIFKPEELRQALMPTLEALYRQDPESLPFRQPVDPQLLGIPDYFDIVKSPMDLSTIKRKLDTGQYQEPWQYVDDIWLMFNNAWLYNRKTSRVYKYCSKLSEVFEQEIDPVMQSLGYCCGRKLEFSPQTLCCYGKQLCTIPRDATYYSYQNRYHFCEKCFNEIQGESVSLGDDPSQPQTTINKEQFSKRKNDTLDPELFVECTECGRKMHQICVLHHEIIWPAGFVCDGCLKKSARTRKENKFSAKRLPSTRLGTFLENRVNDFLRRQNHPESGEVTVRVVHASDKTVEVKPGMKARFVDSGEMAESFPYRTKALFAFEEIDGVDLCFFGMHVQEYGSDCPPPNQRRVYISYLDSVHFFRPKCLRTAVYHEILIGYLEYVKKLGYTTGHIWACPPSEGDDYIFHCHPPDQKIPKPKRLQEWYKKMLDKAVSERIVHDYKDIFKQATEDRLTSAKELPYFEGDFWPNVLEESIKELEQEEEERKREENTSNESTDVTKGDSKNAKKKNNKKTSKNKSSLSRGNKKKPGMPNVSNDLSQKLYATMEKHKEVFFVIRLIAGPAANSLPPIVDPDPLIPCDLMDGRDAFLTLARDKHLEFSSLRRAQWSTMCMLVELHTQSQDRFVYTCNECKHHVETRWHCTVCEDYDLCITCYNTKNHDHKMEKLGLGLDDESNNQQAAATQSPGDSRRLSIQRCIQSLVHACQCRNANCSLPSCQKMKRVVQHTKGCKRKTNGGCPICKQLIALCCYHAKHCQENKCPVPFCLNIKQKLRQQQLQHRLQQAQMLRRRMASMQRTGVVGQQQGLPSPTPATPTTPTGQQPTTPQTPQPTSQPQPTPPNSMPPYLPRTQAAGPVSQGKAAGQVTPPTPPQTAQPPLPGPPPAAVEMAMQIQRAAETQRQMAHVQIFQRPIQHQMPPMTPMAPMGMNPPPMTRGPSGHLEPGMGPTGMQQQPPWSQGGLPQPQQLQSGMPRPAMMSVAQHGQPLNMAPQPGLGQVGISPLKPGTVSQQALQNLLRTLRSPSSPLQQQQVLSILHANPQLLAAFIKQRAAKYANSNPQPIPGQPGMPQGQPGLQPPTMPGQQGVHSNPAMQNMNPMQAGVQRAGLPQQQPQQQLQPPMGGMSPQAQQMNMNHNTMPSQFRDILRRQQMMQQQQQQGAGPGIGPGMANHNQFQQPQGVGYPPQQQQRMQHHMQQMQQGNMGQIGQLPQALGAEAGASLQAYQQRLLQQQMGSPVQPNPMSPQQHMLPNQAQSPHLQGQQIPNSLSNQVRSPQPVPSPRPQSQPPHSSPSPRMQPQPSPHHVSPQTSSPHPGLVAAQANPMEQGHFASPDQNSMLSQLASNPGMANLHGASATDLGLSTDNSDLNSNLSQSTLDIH
Protocol: These assays were conducted as described (He et al., 2002). In particular, the recommended procedure for the Mammalian Matchmaker two-hybrid assay kit (Clontech) was modified slightly by changing from a chloramphenicol acetyltransferase reporter to a Luciferase Reporter pFRLuc (Stratagene), which is under the control of five repeats of the upstream activating sequence for the binding of GAL4.

[1] = tested on: GR repression of an AP-1 induced gene; experiment: GR-mediated repression of PMA-induced AP-1/Luc reporter in U2OS.rGR cells; conditions: 25 μM PMA, no Dex
Protocol: FIG. 5A-F illustrate STAMP modulation of GR-mediated repression. […] U2OS.rGR cells were transiently transfected with ±TIF2 (20 ng)±STAMP (100 ng) plasmids, AP-1/Luc reporter (20 ng), and Renilla control (10 ng) plasmid. The cells were induced with ethanol (EtOH) or 25 μM PMA±0.1 μM Dex. […] The average values±S.E.M. of four experiments are plotted. The numbers in parentheses above the bars labeled “PMA+Dex” represent the average fold repression caused by Dex± the various factors.
FIG. 5B illustrates that functional TIF2 is needed for optimal STAMP activity. U2OS.rGR cells were transiently transfected and processed as described for FIG. 5A but less STAMP (50 ng) was used and two concentrations of TIF2 or TIF2m123 (10 and 20 ng) were employed. The average values±S.E.M. of 4-5 experiments are plotted. An asterisk indicates a significant difference (P≦0.031) between samples containing equal amounts of TIF2 and TIF2m123.
Rogatsky et al. have reported that TIF2 augments GR repression of an AP-1 induced gene. […] The TIF2 domain identified as having TIF2 activity in GR repression was the same as used to isolate STAMP. In order to determine if STAMP was active in GR-mediated gene repression as well as induction, the ability of STAMP to increase the repressive activity of GR in the AP-1 responsive whole cell bioassay system was assessed using U2OS.rGR cells.

Row | Molecule | interaction with C-terminal portion of SRC-1 (1139C) (SRC-1 (1139C)) | association with p300 (p300) | fold induction by PMA [1]
1 | B1 | strongly interacted | negligible association | 
2 | B2 |  |  | unchanged
